According to IntAct's records for PubMed 32296183:

Assays:
rm38_human MRPL38 = rm38_human MRPL38 (UniProt Q96DV4)
wbp2_human WBP2 = wbp2_human WBP2 (UniProt Q969T9)
prdm6_human PRDM6 = prdm6_human PRDM6 (UniProt Q9NQX0)
cytm1_human CYSTM1 = cytm1_human CYSTM1 (UniProt Q9H1C7)
ctds1_human CTDSP1 = ctds1_human CTDSP1 (UniProt Q9GZU7)
magd1_human MAGED1 = magd1_human MAGED1 (UniProt Q9Y5V3)
hspb7_human HSPB7 = hspb7_human HSPB7 (UniProt Q9UBY9)
arrd3_human ARRDC3 = arrd3_human ARRDC3 (UniProt Q96B67)
dtx3_human DTX3 = dtx3_human DTX3 (UniProt Q8N9I9)
ptn21_human PTPN21 = ptn21_human PTPN21 (UniProt Q16825)
noto_human NOTO = noto_human NOTO (UniProt A8MTQ0)
dazp2_human DAZAP2 = dazp2_human DAZAP2 (UniProt Q15038)
trib3_human TRIB3 = trib3_human TRIB3 (UniProt Q96RU7)
prr34_human PRR34 = prr34_human PRR34 (UniProt Q9NV39)
Sequence of prr34_human PRR34 (Q9NV39 whole entry): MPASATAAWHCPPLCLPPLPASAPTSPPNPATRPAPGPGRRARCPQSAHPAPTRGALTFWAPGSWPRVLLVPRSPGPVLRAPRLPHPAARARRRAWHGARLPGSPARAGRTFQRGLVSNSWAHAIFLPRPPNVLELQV

vp37b_human VPS37B = vp37b_human VPS37B (UniProt Q9H9H4)
hspb8_human HSPB8 = hspb8_human HSPB8 (UniProt Q9UJY1)
Sequence of hspb8_human HSPB8 (Q9UJY1 whole entry): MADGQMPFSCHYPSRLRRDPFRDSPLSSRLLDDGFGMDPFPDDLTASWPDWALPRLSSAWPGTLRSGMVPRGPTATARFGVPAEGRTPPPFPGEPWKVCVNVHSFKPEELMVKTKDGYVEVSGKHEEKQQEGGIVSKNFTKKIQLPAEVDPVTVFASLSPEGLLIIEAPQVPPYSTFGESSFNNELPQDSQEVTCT

tm174_human TMEM174 = tm174_human TMEM174 (UniProt Q8WUU8)
Sequence of tm174_human TMEM174 (Q8WUU8 whole entry): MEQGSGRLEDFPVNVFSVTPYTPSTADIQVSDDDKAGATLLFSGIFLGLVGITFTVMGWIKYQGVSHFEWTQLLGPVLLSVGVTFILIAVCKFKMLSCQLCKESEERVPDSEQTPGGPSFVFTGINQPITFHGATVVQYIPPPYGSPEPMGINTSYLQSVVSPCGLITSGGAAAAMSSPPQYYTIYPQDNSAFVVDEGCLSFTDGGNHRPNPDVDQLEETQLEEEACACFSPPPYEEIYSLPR

pa2gx_human PLA2G10 = pa2gx_human PLA2G10 (UniProt O15496)
leng8_human LENG8 = leng8_human LENG8 (UniProt Q96PV6)
pdli7_human PDLIM7 = pdli7_human PDLIM7 (UniProt Q9NR12)
pihd2_human PIH1D2 = pihd2_human PIH1D2 (UniProt Q8WWB5)
fx4l1_human FOXD4L1 = fx4l1_human FOXD4L1 (UniProt Q9NU39)
mdfi_human MDFI = mdfi_human MDFI (UniProt Q99750)
tri27_human TRIM27 = tri27_human TRIM27 (UniProt P14373)
egr4_human EGR4 = egr4_human EGR4 (UniProt Q05215)
fads6_human FADS6 = fads6_human FADS6 (UniProt Q8N9I5)
pick1_human PICK1 = pick1_human PICK1 (UniProt Q9NRD5)
Sequence of pick1_human PICK1 (Q9NRD5 whole entry): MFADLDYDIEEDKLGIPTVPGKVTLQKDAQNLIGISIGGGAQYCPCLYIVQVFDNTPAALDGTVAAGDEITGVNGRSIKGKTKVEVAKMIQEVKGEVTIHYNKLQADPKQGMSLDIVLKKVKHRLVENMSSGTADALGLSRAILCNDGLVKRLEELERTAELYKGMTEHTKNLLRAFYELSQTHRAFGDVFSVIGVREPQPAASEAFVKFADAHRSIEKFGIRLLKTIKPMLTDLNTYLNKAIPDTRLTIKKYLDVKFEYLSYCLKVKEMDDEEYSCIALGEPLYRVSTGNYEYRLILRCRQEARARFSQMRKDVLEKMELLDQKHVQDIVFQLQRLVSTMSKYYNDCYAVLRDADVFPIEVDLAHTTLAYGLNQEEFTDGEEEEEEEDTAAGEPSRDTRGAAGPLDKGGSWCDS

zn639_human ZNF639 = zn639_human ZNF639 (UniProt Q9UID6)
Sequence of zn639_human ZNF639 (Q9UID6 whole entry): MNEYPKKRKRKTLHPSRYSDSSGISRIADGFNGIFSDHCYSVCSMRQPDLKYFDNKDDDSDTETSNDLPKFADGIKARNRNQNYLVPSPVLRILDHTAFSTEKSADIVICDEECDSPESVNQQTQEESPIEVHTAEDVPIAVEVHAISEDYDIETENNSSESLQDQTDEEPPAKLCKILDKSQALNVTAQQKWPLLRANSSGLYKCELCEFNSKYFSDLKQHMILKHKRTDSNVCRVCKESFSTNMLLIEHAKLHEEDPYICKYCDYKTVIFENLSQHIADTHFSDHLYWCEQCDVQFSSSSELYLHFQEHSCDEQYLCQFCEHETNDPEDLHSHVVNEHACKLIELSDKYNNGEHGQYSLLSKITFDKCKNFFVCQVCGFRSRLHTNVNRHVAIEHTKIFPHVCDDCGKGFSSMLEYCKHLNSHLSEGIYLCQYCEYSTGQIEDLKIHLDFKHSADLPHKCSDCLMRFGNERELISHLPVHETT

mgst2_human MGST2 = mgst2_human MGST2 (UniProt Q99735)
rprm_human RPRM = rprm_human RPRM (UniProt Q9NS64)
coha1_human COL17A1 = coha1_human COL17A1 (UniProt Q9UMD9)
cntrb_human CNTROB = cntrb_human CNTROB (UniProt Q8N137)
syph_human SYP = syph_human SYP (UniProt P08247)
flowr_human CACFD1 = flowr_human CACFD1 (UniProt Q9UGQ2)
sng3_human SYNGR3 = sng3_human SYNGR3 (UniProt O43761)
tri37_human TRIM37 = tri37_human TRIM37 (UniProt O94972)
ppip1_human PSTPIP1 = ppip1_human PSTPIP1 (UniProt O43586)
CCDC43 = CCDC43 (UniProt Q86WV7)
Sequence of CCDC43 (Q86WV7 entry or part of it): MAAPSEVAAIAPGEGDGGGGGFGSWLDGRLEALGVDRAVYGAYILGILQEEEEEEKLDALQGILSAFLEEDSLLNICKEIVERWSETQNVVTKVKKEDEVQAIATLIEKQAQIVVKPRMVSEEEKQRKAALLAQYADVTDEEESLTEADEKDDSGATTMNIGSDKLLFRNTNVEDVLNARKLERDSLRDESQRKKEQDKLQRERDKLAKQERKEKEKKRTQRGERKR

pnma5_human PNMA5 = pnma5_human PNMA5 (UniProt Q96PV4)
tnip1_human TNIP1 = tnip1_human TNIP1 (UniProt Q15025)
zbt14_human ZBTB14 = zbt14_human ZBTB14 (UniProt O43829)
xrcc4_human XRCC4 = xrcc4_human XRCC4 (UniProt Q13426)
crcm_human MCC = crcm_human MCC (UniProt P23508)
kank2_human KANK2 = kank2_human KANK2 (UniProt Q63ZY3)
Sequence of kank2_human KANK2 (Q63ZY3 whole entry): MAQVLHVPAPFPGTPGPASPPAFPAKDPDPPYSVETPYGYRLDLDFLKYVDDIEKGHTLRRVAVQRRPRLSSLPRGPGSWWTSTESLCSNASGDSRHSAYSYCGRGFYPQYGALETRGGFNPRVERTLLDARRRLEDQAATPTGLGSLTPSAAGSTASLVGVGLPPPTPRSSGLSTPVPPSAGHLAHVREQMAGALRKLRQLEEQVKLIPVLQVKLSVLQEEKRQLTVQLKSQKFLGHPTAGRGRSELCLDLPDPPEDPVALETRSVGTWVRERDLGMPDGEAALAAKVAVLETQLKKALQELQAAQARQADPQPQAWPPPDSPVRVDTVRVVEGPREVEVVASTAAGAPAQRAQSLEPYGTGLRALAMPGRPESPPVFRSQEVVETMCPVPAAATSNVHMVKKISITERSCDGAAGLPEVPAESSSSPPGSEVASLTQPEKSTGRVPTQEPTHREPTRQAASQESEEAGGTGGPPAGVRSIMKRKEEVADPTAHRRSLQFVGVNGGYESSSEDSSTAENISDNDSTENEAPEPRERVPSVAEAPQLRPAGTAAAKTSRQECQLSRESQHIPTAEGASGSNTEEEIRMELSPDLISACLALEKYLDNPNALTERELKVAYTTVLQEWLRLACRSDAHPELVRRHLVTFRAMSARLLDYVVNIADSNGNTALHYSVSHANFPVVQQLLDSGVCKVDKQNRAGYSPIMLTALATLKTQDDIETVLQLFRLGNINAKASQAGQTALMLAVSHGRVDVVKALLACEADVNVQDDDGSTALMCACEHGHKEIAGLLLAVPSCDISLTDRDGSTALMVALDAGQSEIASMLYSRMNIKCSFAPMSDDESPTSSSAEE

klh12_human KLHL12 = klh12_human KLHL12 (UniProt Q53G59)
Sequence of klh12_human KLHL12 (Q53G59 whole entry): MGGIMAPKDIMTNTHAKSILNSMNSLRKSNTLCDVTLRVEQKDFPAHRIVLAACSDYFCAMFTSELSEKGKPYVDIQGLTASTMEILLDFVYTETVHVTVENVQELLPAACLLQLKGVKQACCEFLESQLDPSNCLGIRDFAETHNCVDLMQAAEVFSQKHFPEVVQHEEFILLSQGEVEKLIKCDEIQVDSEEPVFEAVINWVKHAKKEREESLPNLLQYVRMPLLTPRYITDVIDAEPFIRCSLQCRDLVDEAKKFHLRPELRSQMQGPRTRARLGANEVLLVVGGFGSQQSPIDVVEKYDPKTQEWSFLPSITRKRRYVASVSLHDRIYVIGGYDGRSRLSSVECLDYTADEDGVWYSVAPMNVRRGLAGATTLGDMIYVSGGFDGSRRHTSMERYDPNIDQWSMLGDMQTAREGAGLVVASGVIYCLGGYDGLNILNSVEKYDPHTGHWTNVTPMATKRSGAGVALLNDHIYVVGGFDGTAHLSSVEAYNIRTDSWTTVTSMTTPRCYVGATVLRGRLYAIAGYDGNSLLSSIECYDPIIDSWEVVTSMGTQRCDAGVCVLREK

sft2a_human SFT2D1 = sft2a_human SFT2D1 (UniProt Q8WV19)
Sequence of sft2a_human SFT2D1 (Q8WV19 whole entry): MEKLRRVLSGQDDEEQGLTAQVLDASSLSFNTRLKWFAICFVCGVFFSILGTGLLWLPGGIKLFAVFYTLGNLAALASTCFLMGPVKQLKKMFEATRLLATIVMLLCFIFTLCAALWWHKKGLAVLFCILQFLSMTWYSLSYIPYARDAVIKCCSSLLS

snx2_human SNX2 = snx2_human SNX2 (UniProt O60749)
tbcd1_human TBC1D1 = tbcd1_human TBC1D1 (UniProt Q86TI0)
thap1_human THAP1 = thap1_human THAP1 (UniProt Q9NVV9)
Sequence of thap1_human THAP1 (Q9NVV9 whole entry): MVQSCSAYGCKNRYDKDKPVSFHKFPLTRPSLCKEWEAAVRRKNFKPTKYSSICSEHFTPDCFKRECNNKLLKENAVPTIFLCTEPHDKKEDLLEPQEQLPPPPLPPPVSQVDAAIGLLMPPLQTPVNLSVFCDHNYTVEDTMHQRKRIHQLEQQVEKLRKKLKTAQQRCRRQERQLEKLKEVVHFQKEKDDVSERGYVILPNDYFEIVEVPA

sp4_human SP4 = sp4_human SP4 (UniProt Q02446)
trbp2_human TARBP2 = trbp2_human TARBP2 (UniProt Q15633)
Sequence of trbp2_human TARBP2 (Q15633 whole entry): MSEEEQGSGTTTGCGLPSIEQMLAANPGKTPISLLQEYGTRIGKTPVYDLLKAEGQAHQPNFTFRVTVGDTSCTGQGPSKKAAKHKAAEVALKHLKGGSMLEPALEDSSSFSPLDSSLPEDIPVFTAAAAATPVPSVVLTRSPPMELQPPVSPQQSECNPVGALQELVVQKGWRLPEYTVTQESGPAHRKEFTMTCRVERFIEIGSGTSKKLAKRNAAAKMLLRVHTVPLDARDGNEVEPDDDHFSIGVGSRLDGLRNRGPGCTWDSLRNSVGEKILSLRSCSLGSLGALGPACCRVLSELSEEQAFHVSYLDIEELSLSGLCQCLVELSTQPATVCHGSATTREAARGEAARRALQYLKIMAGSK

car10_human CARD10 = car10_human CARD10 (UniProt Q9BWT7)
msd4_human MSANTD4 = msd4_human MSANTD4 (UniProt Q8NCY6)

Sequence of EYA2, O00167-2 (O00167 other isoform, or with tags, fused parts or gaps): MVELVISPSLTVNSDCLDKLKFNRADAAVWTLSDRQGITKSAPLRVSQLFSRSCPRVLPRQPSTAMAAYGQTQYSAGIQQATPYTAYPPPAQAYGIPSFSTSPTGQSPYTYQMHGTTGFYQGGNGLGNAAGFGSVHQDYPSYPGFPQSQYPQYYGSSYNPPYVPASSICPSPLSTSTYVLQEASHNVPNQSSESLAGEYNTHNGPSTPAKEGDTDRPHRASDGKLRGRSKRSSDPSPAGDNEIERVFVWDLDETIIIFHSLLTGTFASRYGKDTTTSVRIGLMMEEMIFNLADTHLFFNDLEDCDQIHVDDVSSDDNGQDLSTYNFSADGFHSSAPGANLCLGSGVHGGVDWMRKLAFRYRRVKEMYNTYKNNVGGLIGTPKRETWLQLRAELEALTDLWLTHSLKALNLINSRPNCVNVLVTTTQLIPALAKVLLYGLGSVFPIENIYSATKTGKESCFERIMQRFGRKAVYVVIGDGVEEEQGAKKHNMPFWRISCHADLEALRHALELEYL

BAG family molecular chaperone regulator 3 (Homo sapiens), O95817 L462P
effect of a mutation on the interaction (rm38_human MRPL38): disrupting interaction strength | effect of a mutation on the interaction (wbp2_human WBP2): with no effect | effect of a mutation on the interaction (prdm6_human PRDM6): with no effect | effect of a mutation on the interaction (cytm1_human CYSTM1): with no effect | effect of a mutation on the interaction (ctds1_human CTDSP1): disrupting interaction strength | effect of a mutation on the interaction (magd1_human MAGED1): with no effect | effect of a mutation on the interaction (hspb7_human HSPB7): with no effect | effect of a mutation on the interaction (arrd3_human ARRDC3): with no effect | effect of a mutation on the interaction (dtx3_human DTX3): with no effect | effect of a mutation on the interaction (RUNX1, Q01196-8): with no effect | effect of a mutation on the interaction (ptn21_human PTPN21): with no effect | effect of a mutation on the interaction (noto_human NOTO): with no effect | effect of a mutation on the interaction (dazp2_human DAZAP2): with no effect | effect of a mutation on the interaction (trib3_human TRIB3): disrupting interaction strength | effect of a mutation on the interaction (GLIS3, Q8NEA6-2): with no effect | effect of a mutation on the interaction (EYA2, O00167-2): with no effect | effect of a mutation on the interaction (prr34_human PRR34): with no effect | effect of a mutation on the interaction (vp37b_human VPS37B): with no effect | effect of a mutation on the interaction (hspb8_human HSPB8): with no effect | effect of a mutation on the interaction (tm174_human TMEM174): disrupting interaction strength | effect of a mutation on the interaction (SIAH1, Q8IUQ4-2): disrupting interaction strength | effect of a mutation on the interaction (NR1H3, Q13133-3): with no effect | effect of a mutation on the interaction (pa2gx_human PLA2G10): with no effect | effect of a mutation on the interaction (leng8_human LENG8): disrupting interaction strength | effect of a mutation on the interaction (pdli7_human PDLIM7): with no effect | effect of a mutation on the interaction (pihd2_human PIH1D2): with no effect | effect of a mutation on the interaction (fx4l1_human FOXD4L1): with no effect | effect of a mutation on the interaction (mdfi_human MDFI): with no effect | effect of a mutation on the interaction (tri27_human TRIM27): with no effect | effect of a mutation on the interaction (egr4_human EGR4): with no effect

Bifunctional polynucleotide phosphatase/kinase (Homo sapiens), Q96T60 E326K
effect of a mutation on the interaction (fads6_human FADS6): with no effect | effect of a mutation on the interaction (pick1_human PICK1): disrupting interaction strength | effect of a mutation on the interaction (zn639_human ZNF639): with no effect | effect of a mutation on the interaction (TMEM239, Q8WW34-2): disrupting interaction strength | effect of a mutation on the interaction (mgst2_human MGST2): with no effect | effect of a mutation on the interaction (rprm_human RPRM): disrupting interaction strength | effect of a mutation on the interaction (coha1_human COL17A1): disrupting interaction strength | effect of a mutation on the interaction (cntrb_human CNTROB): with no effect | effect of a mutation on the interaction (syph_human SYP): with no effect | effect of a mutation on the interaction (flowr_human CACFD1): disrupting interaction strength | effect of a mutation on the interaction (sng3_human SYNGR3): with no effect | effect of a mutation on the interaction (tri37_human TRIM37): with no effect | effect of a mutation on the interaction (ppip1_human PSTPIP1): with no effect | effect of a mutation on the interaction (CCDC43): disrupting interaction strength | effect of a mutation on the interaction (pnma5_human PNMA5): disrupting interaction strength | effect of a mutation on the interaction (CCDC14, Q49A88-3): disrupting interaction strength | effect of a mutation on the interaction (tnip1_human TNIP1): with no effect | effect of a mutation on the interaction (zbt14_human ZBTB14): with no effect | effect of a mutation on the interaction (xrcc4_human XRCC4): with no effect | effect of a mutation on the interaction (crcm_human MCC): disrupting interaction strength | effect of a mutation on the interaction (kank2_human KANK2): disrupting interaction strength | effect of a mutation on the interaction (CAMK2B, Q13554-3): disrupting interaction strength | effect of a mutation on the interaction (klh12_human KLHL12): disrupting interaction strength | effect of a mutation on the interaction (SYNGR1, O43759-2): disrupting interaction strength | effect of a mutation on the interaction (IKZF1, Q13422-7): with no effect | effect of a mutation on the interaction (sft2a_human SFT2D1): disrupting interaction strength | effect of a mutation on the interaction (snx2_human SNX2): with no effect | effect of a mutation on the interaction (tbcd1_human TBC1D1): with no effect | effect of a mutation on the interaction (thap1_human THAP1): disrupting interaction strength | effect of a mutation on the interaction (sp4_human SP4): with no effect | effect of a mutation on the interaction (trbp2_human TARBP2): disrupting interaction strength | effect of a mutation on the interaction (car10_human CARD10): disrupting interaction strength | effect of a mutation on the interaction (msd4_human MSANTD4): disrupting interaction strength
